tested on: MS2 coat protein; test: apparent KD of MS2 coat protein; higher = weaker reporter binding; conditions: Eterna round: R107; input ligand: theophylline 20 uM
In short: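 Titration buffer: 100 mM Tris-HCl pH 7.5, 80 mM KCl, 4 mM MgCl2, without or with constant ligand. Designed RNA switches transcribed on-chip from Illumina sequencing clusters received SNAP-549-labelled MS2 coat protein in twofold steps from 0.7 or 1.5 nM to 3 µM. Apparent KD is the median per design of fits to normalised cluster binding curves.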

| Sequence | apparent KD of MS2 coat protein [nM] |
| --- | --- |
| GGGCGUGUGGUGCGGCGUGUUCCGCUCCGUCGAGGACCGGUACGGCCGCCACUCGACAUGAGGAUCACCCAUGUGCGAGCGCGCG [#1 Exclusion - Tryptophan A Attempt #8 (HarryS)] | 13.2 |
| AAUGUAUGGCACAUGAGGAUCACCCAUGUGCGAGGACCGGUACGGCCGCCACUCGGUCCUGGGAUCUUACAACUAUACAUUAAUG [XTryp A #20] | 17.2 |
| AGCCACUCGAGUGAUCCUCACGAGUGGCUACGAGGACCGGUACGGCCGCCACUCGAAUCAACAUGAGGAUCACCCAUGUAAUAAU [Brourdmod02] | 159 |
| ACAUGAGGAUCACCCAUGUGUGUAAAUCCUCGAGGACCGGUACGGCCGCCACUCGAUUGAGUGUAAGUUGAAUGUAACAUUCAAC [whbob_SS_trypto A_2s9] | 134 |
| GGUUGGUGUAGAGAUAUAUUGAUUACUGAAGGAGCGGGAACAAACCCAGGUAGGUCGCAGAGAUCCACAUGAGGAUCACCCAUGU [!0.N] | 58.3 |
| GUAAAGUAAAGAAGGAGCGUCGAAAAUGGGUAAACAUGAGGAUCACCCAUGUAAAGGGAACGACAGGUAGGUCGCUUUAUUUUAC [AstromonsSSArgB#17] | 223 |
| AUAACAUGAGGAUCACCCAUGUAUUGGUUACGAGGACCGGUACGGCCGCCACUCGUAUUUUGGUGGUAUUUUGUAUAUAUGAUAA [JR_SSTryptoA_Sub018] | 32.3 |
| GGGCGAGUGGACCGGCGUGCUCCGCUCCGUCGAGGACCGGUACGGCCGCCACUCGACAUGAGGAUCACCCAUGUGCGAGCUCGCG [#1 Exclusion - Tryptophan A Attempt #14 (HarryS)] | 114 |
| GGCGUGGUCGGAAGGAGCGACAUGAGGAUCACCCAUGUCUCCCGUUAUGGGAGUUCCUUAGGUCAGGUAGGUCGCCGACUGCGGC [#1 Exclusion - Arginine B Attempt #22 (Inspired by Omei)] | 123 |
| AAACGUUGCUGCGAUACCAGACAUGAGGAUCACCCAUGUACCAAGGUAAGAAAAUAACAUGUCCCUUGGCAGCGCAGCAACGAAA [MAT - Exclusion Theophlline B - Mod of Eli - D3] | 43.6 |
| AGCAACAAGUCGGCCGCCACUCAUUUAACAUGAGGAUCACCCAUGUGAAUAACAUGAUUGUAAUAGAGGACCGGGACAGUUGCAU [JR_SSTryptoB_Sub014] | 85.5 |
| ACAUGAGGAUCACCCAUGUGGCGUCUUGAUACCAGACGAGAAGUAGUCCCUUGGCAGCAAAUACAUGAGGAUCACCCAUGUAGGA [cccmullin] | 25.5 |
| UCGUGGUCCGCAAGGACCGGGAGUUGCGAUACCAGCACGGUAACGUGCCCUUGGCAGCGCACAUGAGGAUCACCCAUGUGGUGUU [#1 Exclusion - Theophylline A Attempt #14 (HarryS)] | 305 |
| UCACUCCUGAUGGAUACCAGUUACUAACGCAACAUGAGGAUCACCCAUGUGAACACUCAGAACCCUUGGCAGCCAGGAGAACGAA [theeternabot_sameState_MS2_Theo_B_30] | 60.2 |

same assay, conditions: Eterna round: R107; input ligand: theophylline 2 mM

| Sequence | apparent KD of MS2 coat protein [nM] |
| --- | --- |
| AGGUACGGAAUCCUCAUGUAGUCGUACCAACGAGGACCGGUACGGCCGCCACUCGAAUAAACAUGAGGAUCACCCAUGUAAUAAU [T''-M-T'-T-MS2] | 90.1 |
| AAUAGACAUGAGGAUCACCCAUGUAUGGAAGGAGCGGUGAAUAAGCCAGGUAGGUCGCCAGUGUGAGGGUUAUCUAUGUAAUAAA [#19 Exclusion - Arginine A] | 35.7 |
| AUAAUAAUACAUGAGGAUCACCCAUGUAUGCGAGGACCGGUACGGCCGCCACUCGACCUCAUGCAUACAUGAGGAUCACCCAUGU [Same State Tryptophan A 4] | 67.2 |
| AAUAAACAUGAGGAUCACCCAUGUAGGGUGCGAGGACCGGUACGGCCGCCACUCGGGUGAAAACAUGAGGAUCACCCAUGUAAAA [Mat - Exclusion - Trytophan A - D23] | 220 |
| UGUAUGGACUGAAGGAGCGCCUCAAAAUAGCAUGAGGAACACCCAUGCAAGGCGAAAGCCGGGCAGGUAGGUCGCAGUCCAUACU [ArgBX 3] | 27.2 |
| ACUAGGCUCGGAAACGAGCCUAGGACAGAAGGAGCGUGGAUUAACACAGGUAGGUCGCUGACAUGAGGAUCACCCAUGUAUUUAU [SSAA #5] | 25.6 |
| GGGCGUGUGGUGCGGCGUGUUCCGCUCCGUCGAGGACCGGUACGGCCGCCACUCGACAUGAGGAUCACCCAUGUGCGAGCGCGCG [#1 Exclusion - Tryptophan A Attempt #8 (HarryS)] | 11.7 |
| AAUGUAUGGCACAUGAGGAUCACCCAUGUGCGAGGACCGGUACGGCCGCCACUCGGUCCUGGGAUCUUACAACUAUACAUUAAUG [XTryp A #20] | 16.4 |
| AGCCACUCGAGUGAUCCUCACGAGUGGCUACGAGGACCGGUACGGCCGCCACUCGAAUCAACAUGAGGAUCACCCAUGUAAUAAU [Brourdmod02] | 802 |
| ACAUGAGGAUCACCCAUGUGUGUAAAUCCUCGAGGACCGGUACGGCCGCCACUCGAUUGAGUGUAAGUUGAAUGUAACAUUCAAC [whbob_SS_trypto A_2s9] | 144 |
| GGUUGGUGUAGAGAUAUAUUGAUUACUGAAGGAGCGGGAACAAACCCAGGUAGGUCGCAGAGAUCCACAUGAGGAUCACCCAUGU [!0.N] | 39.3 |

Reference: the supplement of paper PMC9170038
